For 3 proteins, Km results are on record in paper PMC7003067.

For orientation: Km means the substrate concentration at which the rate is half of its maximum.

Substrate in this series: O=c1ccn([C@@H]2O[C@H](COP(=O)(O)OP(=O)(O)O[C@H]3O[C@H](CO)[C@H](O)[C@H](O)[C@H]3O)[C@@H](O)[C@H]2O)c(=O)[nH]1
Kind of series: UDP-Glo glycosyltransferase assay. The series is classed as biochemical, Homo sapiens. Conditions: no acceptor, 50 mM Tris pH 7.5, 5 mM MnCl2, 37 °C, 60 min.

B1: GLT8D1 (Homo sapiens) (protein)
chain: MSFRKVNIIILVLAVALFLLVLHHNFLSLSSLLRNEVTDSGIVGPQPIDFVPNALRHAVDGRQEEIPVVIAASEDRLGGAIAAINSIQHNTRSNVIFYIVTLNNTADHLRSWLNSDSLKSIRYKIVNFDPKLLEGKVKEDPDQGESMKPLTFARFYLPILVPSAKKAIYMDDDVIVQGDILALYNTALKPGHAAAFSEDCDSASTKVVIRGAGNQYNYIGYLDYKKERIRKLSMKASTCSFNPGVFVANLTEWKRQNITNQLEKWMKLNVEEGLYSRTLAGSITTPPLLIVFYQQHSTIDPMWNVRHLGSSAGKRYSPQFVKAAKLLHWNGHLKPWGRTASYTDVWEKWYIPDPTGKFNLIRRYTEISNIK
As to B1, the Km is 3500 µM.

B2: GLT8D1 (Homo sapiens; G78W) (protein)
chain: MSFRKVNIIILVLAVALFLLVLHHNFLSLSSLLRNEVTDSGIVGPQPIDFVPNALRHAVDGRQEEIPVVIAASEDRLWGAIAAINSIQHNTRSNVIFYIVTLNNTADHLRSWLNSDSLKSIRYKIVNFDPKLLEGKVKEDPDQGESMKPLTFARFYLPILVPSAKKAIYMDDDVIVQGDILALYNTALKPGHAAAFSEDCDSASTKVVIRGAGNQYNYIGYLDYKKERIRKLSMKASTCSFNPGVFVANLTEWKRQNITNQLEKWMKLNVEEGLYSRTLAGSITTPPLLIVFYQQHSTIDPMWNVRHLGSSAGKRYSPQFVKAAKLLHWNGHLKPWGRTASYTDVWEKWYIPDPTGKFNLIRRYTEISNIK
Take B2: the Michaelis constant (Km) amounted to 2300 µM.

B3: GLT8D1 (Homo sapiens; R92C) (protein)
chain: MSFRKVNIIILVLAVALFLLVLHHNFLSLSSLLRNEVTDSGIVGPQPIDFVPNALRHAVDGRQEEIPVVIAASEDRLGGAIAAINSIQHNTCSNVIFYIVTLNNTADHLRSWLNSDSLKSIRYKIVNFDPKLLEGKVKEDPDQGESMKPLTFARFYLPILVPSAKKAIYMDDDVIVQGDILALYNTALKPGHAAAFSEDCDSASTKVVIRGAGNQYNYIGYLDYKKERIRKLSMKASTCSFNPGVFVANLTEWKRQNITNQLEKWMKLNVEEGLYSRTLAGSITTPPLLIVFYQQHSTIDPMWNVRHLGSSAGKRYSPQFVKAAKLLHWNGHLKPWGRTASYTDVWEKWYIPDPTGKFNLIRRYTEISNIK
On to B3, for which the Michaelis-Menten constant (Km) worked out at 2500 µM.
